Source: article PMC10847778

Experiments:
[1] = target: oleate hydratase (OhyA), recombinant full-length, His-tagged (Staphylococcus aureus); experiment: cryo-EM single-particle images (no structure solved); grids of OhyA prepared in the absence of detergent
[2] = target: oleate hydratase (OhyA), recombinant full-length, His-tagged (Staphylococcus aureus); experiment: mass photometry; OneMP mass photometer; final concentration 100 nM protein; dilute, equilibrium conditions
[3] = target: oleate hydratase (OhyA), recombinant full-length, His-tagged (Staphylococcus aureus); experiment: SEC-MALS; Superose 6 Increase 10/300 GL; 20 mM Tris, 200 mM NaCl, pH 7.6; 25 °C; protein at 2 mg/ml, 100 μl injected
[4] = target: OhyA lacking helices α19 and α20 (OhyA(ΔHTH)), His-tagged (Staphylococcus aureus); experiment: mass photometry; OneMP mass photometer; final concentration 100 nM protein; dilute, equilibrium conditions
[5] = target: OhyA lacking helices α19 and α20 (OhyA(ΔHTH)), His-tagged (Staphylococcus aureus); experiment: SEC-MALS; Superose 6 Increase 10/300 GL; 20 mM Tris, 200 mM NaCl, pH 7.6; 25 °C; protein at 2 mg/ml, 100 μl injected

Work on “oleate hydratase (OhyA), recombinant full-length, His-tagged (enzyme)” yielded a stoichiometry N [1] of 4, a percent dimer [2] of 86% and a stoichiometry N [2] of 2. It also gave a percent dimer [3] of 84.6% and a stoichiometry N [3] of 2.
“OhyA lacking helices α19 and α20 (OhyA(ΔHTH)), His-tagged (domain or fragment)” gave a percent dimer [4] of 20%, a percent monomer [4] of 75% and a percent dimer [5] of 89.8%. It also gave a stoichiometry N [5] of 2.
